Test results from paper PMC3390916 (Chembiochem, 2011).

Biological target: growth factor receptor-bound protein 2 (Grb2), recombinant (human, UniProt P62993 1-217)
Experiment: SPR

Kd: 7.5 ± 5.7 mM
Binder: YEVPPPVPPRRRGSC [SH3-binding peptide (YEVPPPVPPRRR)]
